According to paper PMC5779224 (2017):

Tests used:
[1] = target: T1, AnkG 38–903 (MBD + AI-c + AI-b) (rat, UniProt O70511-1 38-903); experiment: ITC
T1 chain: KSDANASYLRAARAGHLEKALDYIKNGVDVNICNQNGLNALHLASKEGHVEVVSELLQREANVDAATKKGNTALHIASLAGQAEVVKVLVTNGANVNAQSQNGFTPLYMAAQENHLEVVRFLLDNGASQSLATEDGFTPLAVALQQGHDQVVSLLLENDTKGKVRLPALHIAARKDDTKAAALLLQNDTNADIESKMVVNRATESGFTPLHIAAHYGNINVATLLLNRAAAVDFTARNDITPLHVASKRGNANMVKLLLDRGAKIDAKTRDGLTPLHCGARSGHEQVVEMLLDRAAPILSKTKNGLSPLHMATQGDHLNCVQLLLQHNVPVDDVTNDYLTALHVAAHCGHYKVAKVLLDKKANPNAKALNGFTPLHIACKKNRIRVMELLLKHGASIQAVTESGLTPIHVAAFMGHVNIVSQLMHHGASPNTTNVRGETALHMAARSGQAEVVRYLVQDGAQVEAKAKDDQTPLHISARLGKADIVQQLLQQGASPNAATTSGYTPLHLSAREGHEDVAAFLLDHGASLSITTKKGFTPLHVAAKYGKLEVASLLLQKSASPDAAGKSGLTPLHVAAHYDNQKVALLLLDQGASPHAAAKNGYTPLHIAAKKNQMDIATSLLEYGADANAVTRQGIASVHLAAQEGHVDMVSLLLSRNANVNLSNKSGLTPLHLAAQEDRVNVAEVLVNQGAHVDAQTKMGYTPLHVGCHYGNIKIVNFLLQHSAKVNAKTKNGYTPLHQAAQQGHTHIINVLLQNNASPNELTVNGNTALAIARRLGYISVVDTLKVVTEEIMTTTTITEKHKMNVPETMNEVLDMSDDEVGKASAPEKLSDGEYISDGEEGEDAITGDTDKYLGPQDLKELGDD

[2] = target: T2, AnkG 38–855 (AnkG MBD-AI-c protein; MBD + partial AI-c) (rat, UniProt O70511-1 38-855); experiment: ITC; reported in Wang et al 2014
T2 chain: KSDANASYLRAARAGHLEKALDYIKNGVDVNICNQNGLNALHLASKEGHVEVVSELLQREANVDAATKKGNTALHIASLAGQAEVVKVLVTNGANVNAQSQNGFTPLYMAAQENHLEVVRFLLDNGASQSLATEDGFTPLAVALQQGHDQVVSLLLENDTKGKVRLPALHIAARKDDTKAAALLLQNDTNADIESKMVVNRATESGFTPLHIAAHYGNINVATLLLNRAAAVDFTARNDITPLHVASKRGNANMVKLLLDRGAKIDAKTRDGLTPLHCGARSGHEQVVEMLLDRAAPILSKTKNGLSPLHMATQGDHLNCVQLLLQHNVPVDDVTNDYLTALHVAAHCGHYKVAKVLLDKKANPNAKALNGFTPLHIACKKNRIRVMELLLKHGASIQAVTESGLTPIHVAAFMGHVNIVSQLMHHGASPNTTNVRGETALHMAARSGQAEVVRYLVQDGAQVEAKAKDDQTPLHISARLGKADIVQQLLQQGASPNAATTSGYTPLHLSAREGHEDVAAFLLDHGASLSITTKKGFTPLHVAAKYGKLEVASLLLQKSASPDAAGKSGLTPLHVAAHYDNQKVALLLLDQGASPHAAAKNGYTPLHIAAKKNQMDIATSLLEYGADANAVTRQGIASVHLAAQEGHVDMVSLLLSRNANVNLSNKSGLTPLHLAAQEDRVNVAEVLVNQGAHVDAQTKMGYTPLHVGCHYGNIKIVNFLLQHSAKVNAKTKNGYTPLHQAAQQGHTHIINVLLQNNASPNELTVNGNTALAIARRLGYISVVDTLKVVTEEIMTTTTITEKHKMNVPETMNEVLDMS

[3] = target: T3, AnkB 28–965 (MBD + AI-c + AI-b) (human, UniProt Q01484-2 28-965); experiment: ITC
T3 chain: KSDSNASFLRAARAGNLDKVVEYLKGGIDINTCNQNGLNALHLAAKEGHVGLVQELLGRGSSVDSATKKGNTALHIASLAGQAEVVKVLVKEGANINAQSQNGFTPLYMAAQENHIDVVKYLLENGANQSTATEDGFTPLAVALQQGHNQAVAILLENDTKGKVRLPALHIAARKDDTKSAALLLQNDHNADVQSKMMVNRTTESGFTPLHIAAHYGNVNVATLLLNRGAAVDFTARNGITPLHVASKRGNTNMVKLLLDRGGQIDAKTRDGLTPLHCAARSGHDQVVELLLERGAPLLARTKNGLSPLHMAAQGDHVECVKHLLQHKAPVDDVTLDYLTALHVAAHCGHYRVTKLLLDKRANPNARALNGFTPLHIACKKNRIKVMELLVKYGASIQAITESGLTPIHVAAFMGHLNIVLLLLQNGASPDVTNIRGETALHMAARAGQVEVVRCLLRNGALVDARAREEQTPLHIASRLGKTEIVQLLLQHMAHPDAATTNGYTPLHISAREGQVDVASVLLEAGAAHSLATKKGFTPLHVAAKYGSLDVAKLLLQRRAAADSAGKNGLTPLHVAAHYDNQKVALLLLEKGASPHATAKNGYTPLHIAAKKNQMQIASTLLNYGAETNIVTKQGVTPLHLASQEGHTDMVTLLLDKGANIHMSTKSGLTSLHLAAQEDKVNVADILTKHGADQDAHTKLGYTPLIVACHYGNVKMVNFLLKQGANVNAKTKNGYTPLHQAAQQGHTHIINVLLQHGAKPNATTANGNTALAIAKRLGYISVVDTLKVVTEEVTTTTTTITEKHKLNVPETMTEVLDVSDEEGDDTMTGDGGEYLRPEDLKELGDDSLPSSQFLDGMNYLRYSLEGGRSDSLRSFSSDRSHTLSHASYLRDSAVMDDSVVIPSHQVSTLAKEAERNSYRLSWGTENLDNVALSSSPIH

B1: NF186 (aa 1187–1214) (domain or fragment)
chain: SDDSLVDYGEGGEGQFNEDGSFIGQYTV
Question: What does the source list for B1?
Answer: Kd [1]: 4.2 µM; Kd [2]: 0.21 µM; Kd [3]: 23 µM
